Assays:
[1] = system: tumors of patients (pancreatic cancer, non small cell lung cancer, small cell lung cancer, nasopharyngeal carcinoma); settings: human, in vivo, iv
Description: In a clinical trial in the real world, a patient with pancreatic cancer (one), a patient with non small cell lung cancer (one), a patient with small cell lung cancer (one) and a patient with nasopharyngeal carcinoma (one) were used as subjects. An intravenous injection dose (1.8-2.2 MBq [0.05-0.06 mCi]/kg) of the ^68Ga-FAPI-RGD (V-25) was calculated based on a body weight of each subject. After intravenous injection was performed for 3 h, data was obtained by a hybrid PET/CT scanner (Discovery MI, GE Health care, Milwaukee, WI, USA). A maximum standard uptake value (SUVmax) was automatically calculated by using a region of interest (ROI) drawn on a transaxial image. The SUVmax value of the ^68Ga-FAPI-RGD (V-25) targeting two targets is higher than that of ^68Ga-FAPI-46 targeting the single target, FAP, in different types of tumors, and the SUVmax value is increased by about 30-50%, proving that the design of targeting two targets can improve the number and utilization efficiency of effective receptors in tumors, thereby improving the uptake in tumors.

[2] = system: HT1080-FAP tumor-bearing mice; settings: mouse, in vivo
Description: Then, under anaesthesia with isoflurane, the ^68Ga-FAPI-RGD (V-25) group was subjected to MicroPET imaging after administration for 0-240 min, respectively, and the other groups were subjected to MicroPET imaging after administration for 0-120 min, respectively. In FIG. 53, Part A, Part C and Part E show maximum-density MicroPET projection images of the HT1080-FAP tumor-bearing mice (n=3) at different time points after the intravenous injection of the three groups of mice, respectively, and Part B, Part D and Part F show uptake in various organs or tissues (such as blood, liver, kidney, tumors and muscles) of the three groups of mice at different time points after the injection, respectively, where three uptake amounts in each group correspond to, from left to right, 0.5 h, 1 h and 2 h after the injection, respectively. […] A specific binding property of the ^68Ga-FAPI-RGD (V-25) to integrin αvβ3 and FAP in vivo is proven by a blocking experiment. The ^68Ga-FAPI-RGD (V-25) and C(RGDfK) or FAPI-02 were co-injected into HT1080-FAP tumor-bearing mice, and MicroPET imaging results and organ uptake results are shown in FIG. 54. […]

integrin αvβ3 = target: T1, integrin αvβ3 (Homo sapiens, UniProt P05106+P06756); test: Cell binding experiment in U87MG tumor cells
T1 construct: endogenous in cells; host or cells: U87MG tumor cells
T1 sequence (P06756 31-889 limits assumed): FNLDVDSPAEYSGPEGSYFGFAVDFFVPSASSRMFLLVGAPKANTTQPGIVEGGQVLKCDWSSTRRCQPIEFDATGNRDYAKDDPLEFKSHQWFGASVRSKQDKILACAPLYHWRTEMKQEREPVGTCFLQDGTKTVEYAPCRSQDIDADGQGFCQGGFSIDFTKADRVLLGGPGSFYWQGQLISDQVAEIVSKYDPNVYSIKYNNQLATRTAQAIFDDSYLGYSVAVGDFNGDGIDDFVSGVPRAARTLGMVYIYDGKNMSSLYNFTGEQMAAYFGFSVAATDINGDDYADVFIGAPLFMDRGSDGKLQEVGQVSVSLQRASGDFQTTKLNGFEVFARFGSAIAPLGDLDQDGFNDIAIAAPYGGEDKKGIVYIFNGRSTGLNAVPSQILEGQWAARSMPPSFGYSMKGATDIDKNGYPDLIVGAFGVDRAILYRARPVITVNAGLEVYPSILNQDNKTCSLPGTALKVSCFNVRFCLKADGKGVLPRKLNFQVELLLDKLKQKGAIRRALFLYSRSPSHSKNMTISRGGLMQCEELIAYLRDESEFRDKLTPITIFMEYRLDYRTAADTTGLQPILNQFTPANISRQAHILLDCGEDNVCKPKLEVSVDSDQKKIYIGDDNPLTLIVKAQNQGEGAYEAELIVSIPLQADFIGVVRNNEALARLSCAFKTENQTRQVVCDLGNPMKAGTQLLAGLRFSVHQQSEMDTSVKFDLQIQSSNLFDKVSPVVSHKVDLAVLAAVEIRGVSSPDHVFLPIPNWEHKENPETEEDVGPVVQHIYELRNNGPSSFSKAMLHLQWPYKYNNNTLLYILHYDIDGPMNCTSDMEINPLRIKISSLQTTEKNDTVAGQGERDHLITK
T1 sequence (P06756 891-1048 partner limits assumed): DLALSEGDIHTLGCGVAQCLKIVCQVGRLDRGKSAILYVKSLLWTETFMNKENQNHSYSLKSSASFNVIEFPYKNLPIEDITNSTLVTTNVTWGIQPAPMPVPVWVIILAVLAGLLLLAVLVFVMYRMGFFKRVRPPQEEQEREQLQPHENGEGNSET
T1 sequence (P05106 27-788): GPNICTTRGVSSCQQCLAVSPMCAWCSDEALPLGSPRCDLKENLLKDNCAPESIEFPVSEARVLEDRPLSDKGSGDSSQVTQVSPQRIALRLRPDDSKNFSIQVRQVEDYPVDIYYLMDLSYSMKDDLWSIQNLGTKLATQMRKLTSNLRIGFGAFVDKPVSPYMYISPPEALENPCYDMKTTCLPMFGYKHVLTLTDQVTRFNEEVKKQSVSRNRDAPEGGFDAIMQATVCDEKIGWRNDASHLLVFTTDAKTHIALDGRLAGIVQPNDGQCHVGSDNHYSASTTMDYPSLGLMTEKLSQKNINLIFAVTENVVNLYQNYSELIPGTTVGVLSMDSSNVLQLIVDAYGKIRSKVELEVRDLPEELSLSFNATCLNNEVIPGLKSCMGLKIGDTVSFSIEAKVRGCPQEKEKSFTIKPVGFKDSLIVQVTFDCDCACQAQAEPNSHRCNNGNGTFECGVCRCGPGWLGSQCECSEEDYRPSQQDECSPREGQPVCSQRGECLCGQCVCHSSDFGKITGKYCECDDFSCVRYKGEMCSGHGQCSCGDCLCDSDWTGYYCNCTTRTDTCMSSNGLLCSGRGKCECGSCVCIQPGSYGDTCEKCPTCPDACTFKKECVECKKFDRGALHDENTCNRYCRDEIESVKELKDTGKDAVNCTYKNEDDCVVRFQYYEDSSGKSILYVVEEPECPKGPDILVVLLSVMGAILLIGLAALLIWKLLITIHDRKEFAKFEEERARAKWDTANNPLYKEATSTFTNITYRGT
Description: A cell binding experiment was carried out in HT1080-FAP and U87MG tumor cells, and test results are shown in Part B and Part C of FIG. 52, respectively.

IC50 (integrin αvβ3): 18.9 nM
SMILES: N#C[C@@H]1CCCN1C(=O)CNC(=O)c1ccnc2ccc(OCCCN3CCN(C(=O)CCOCCOCCNC(=O)[C@H](CCC(=O)NCCOCCOCCC(=O)NCCCC[C@@H]4NC(=O)[C@@H](Cc5ccccc5)NC(=O)[C@H](CC(=O)O)NC(=O)CNC(=O)[C@H](CCCNC(=N)N)NC4=O)NC(=O)CN4CCN(CC(=O)O)CCN(CC(=O)O)CC4)CC3)cc12 [^68Ga-FAPI-RGD (V-25), metal not drawn]
SUVmax value compared with 68Ga-FAPI-46 [1]: higher | increase of SUVmax value over 68Ga-FAPI-46 [1]: 30-50% | tumor uptake compared with monomers [2]: higher

From patent publication US20250135043A1, “DUAL-TARGETING COMPOUND FOR FIBROBLAST ACTIVATION PROTEIN (FAP) AND INTEGRIN avB3, PREPARATION METHOD THEREFOR AND USE THEREOF” (YANTAI LANNACHENG BIOTECHNOLOGY CO., LTD., priority 2022, published 2025)
